Source: patent publication US12365710B2, “HMGB1 protein derivatives for the removal of biofilms” (RESEARCH INSTITUTE AT NATIONWIDE CHILDREN'S HOSPITAL, priority 2018, dated 2025)

Legend:
[1] = system: Klebsiella pneumoniae biofilms; test: in vitro disruption of pre-formed biofilms, LIVE/DEAD, CLSM and COMSTAT; format: cell-based; details: for disruption of established K. pneumoniae biofilms (average thickness, biomass): 200 nM added at 24 h, 16 h incubation; for % reduction in average thickness (AT), mean±SE / % reduction in biomass (BM), mean±SE: 200 nM added to pre-formed biofilms at 24 h, read at 40 h, vs untreated KP biofilms
Protocol: (§1) FIGS. 5A-5E: Anti-biofilm effect of HMGB1 variants on high priority bacterial pathogens. Indicated HMGB1 variants or antibodies against DNABII proteins (α-1HFEc 1gG, 1 μM) were added at 24 h to the respective preformed bacterial biofilms, in vitro. After 16 h of Incubation, biofilms were stained with LIVE/DEAD®, then visualized via confocal laser scanning microscopy. Images were analyzed by COMSTAT to calculate average thickness and comparison to control was plotted. (FIG. 5A) Full-length HMGB1 isoforms (200 nM unless otherwise indicated) added to UPEC, B. cenocepacia, NTHI, or ESKAPE pathogens. 800 nM rHMGB1 and 200 nM mHMGB1 were added for S. aureus (ESKAPE). 800 nM rHMGB1, 800 nM mHMGB1, or 3.3 μM of α-1HFEc 1gG were added for E. faecium (ESKAPE) and were incubated for 1 h as opposed to 16 h to avoid potential degradation by E. faecium proteases. (FIG. 5B) Representative images of UPEC biofilms incubated with increasing concentrations of rHMGB1. (FIG. 5C) Individual domains of HMGB1 (200 nM) were tested for anti-biofilm activity as above (dotted line indicates control values). Bars represent the SEM. Statistical significance compared to control was assessed with unpaired t-tests, *P<0.05. […] (FIGS. 5D-5E) HMGB1 and variants disrupt preformed Klebsiella pneumoniae biofilms. rHMGB1, HMGB1 C45S (mHMGB1), bovine HMGB1 (bHMGB1), B box, B Box C106S (mB Box), A Box, and A+B Box were added (200 nM) at 24 h to preformed K. pneumoniae biofilms. After 16 h of incubation, biofilms were stained with LIVE/DEAD®, then visualized via confocal laser scanning microscopy. Images were analyzed by COMSTAT to calculate average thickness and total biomass. Error bars represent the SEM. ***P<0.0001; ns=not significant.
An in vitro biofilm assay was used to test the effect of HMGB1 and its variants on established bacterial biofilms. Applicant expressed, (in E. coli) and purified >95% human recombinant full length HMGB1 (rHMGB1; 1-215), a C45S mutated variant (mHMGB1) and the HMGB1 domains A Box (1-89), A+B Boxes (1-176), B Box (80-179), and B Box C106S (mB Box) (FIG. 3). […] To evaluate the effect of HMGB1 and its variants as well as a commercially available native bovine HMGB1 (used as a control) on established bacterial biofilms, each protein was added (at 200 nM), to pre-formed Klebsiella pneumoniae biofilms after 24 h of growth. After a 16 h incubation (40 h total biofilm growth), the biofilms were stained with LIVE/DEAD® and analyzed using confocal laser scanning microscopy (CLSM) and COMSTAT analysis to calculate the average thickness and total biomass of the biofilms. […] The results of this study lead to a noteworthy observation that a single dose of these non-antimicrobial compounds was able to disrupt recalcitrant biofilms. In addition, the HMGB1 variants have disrupted every bacterial species tested to date, which includes Uropathogenic E. coli, Burkholderia cenocepacia, Nontypeable Haemophilus influenzae (FIG. 6). A single dose at this concentration released of bacteria from their protective shield makes them vulnerable to clearance by antibiotics and the immune system.
Klebsiella pneumoniae (KP), a common cause of nosocomial infections was used for all BBs disruption assays. Human recombinant full length HMGB1 (rHMGB1; 1-215), a C45S mutation variant (mHMGB1) and the HMGB1 domains A Box (1-89), B Box (90-176), AB Boxes (1-176), B-linker Box (80-179), and B-linker Box C106S were expressed (in E. coli) and purified to >95%. To evaluate the effect of rHMGB1 and the various domains on established BBs, each protein species (200 nM) was added to pre-formed BBs at 24 h. At 40 h the BBs were washed, stained with LIVE/DEAD®, visualized via confocal laser scanning microscopy and images were analyzed by COMSTAT to calculate average thickness and biomass.

[2] = system: UPEC biofilm; test: in vitro disruption of established biofilms, CLSM and COMSTAT; format: cell-based, Uropathogenic E. coli; details: added at 24 h, 16 h exposure; 200 nM unless stated
Protocol: as §1
(§2) HMGB1 disrupts pathogenic biofilms: To test the effect of HMGB1 on bacterial biofilms (FIG. 5), Applicant cloned (IMPACT®, NEB Ipswich, MA), expressed (in E. coli), and purified (heparin sepharose chromatography to >95% purity) tagless human recombinant HMGB1 (rHMGB1) and an engineered C45 S variant (mHMGB1) that mimics the reduced form of HMGB1. rHMGB1 readily forms an intramolecular disulfide bond between C23 and C45 that contributes to pro-inflammatory activity whereas mHMGB1 cannot. These HMGB1 isoforms were evaluated for ability to disrupt established biofilms (formed for 24 h prior to addition). After a 16 h exposure to a single dose of rHMGB1 (200 nM; ˜25-fold greater than typical sepsis serum concentration, but not able to directly induce sepsis), biofilms formed by a wide variety of high priority species were stained with LIVE/DEAD®, analyzed using confocal laser scanning microscopy (CLSM) and COMSTAT analysis and compared to control biofilms. […] Preliminary analysis of PTMs by LC-MS/MS analysis (MS Bioworks, LLC Ann Arbor, MI) indicated minimal modification of both rHMGB1 and nHMGB1 (<20% of the observed peptides had any given PTM, FIG. 1C). […] Thus, while there are intrinsic differences in sensitivity among pathogens, the biofilms formed by all of the tested high priority pathogens were susceptible to a single dose of these non-antimicrobial compounds.
HMGB1 domain structure and anti-biofilm activity: Applicant then produced recombinant HMGB1 truncation variants, of 1) the A Box, a self-contained DNA-binding domain (residues 1-89); 2) an A-B Boxes construct (lacks the C tail; residues 1-185); and 3) the B Box (residues 80 to 176, FIGS. 1A and 1C). […] Since only the B Box can modulate DNA bending, without being bound by theory, it was hypothesized that HMGB1 disrupts biofilms at least in part via DNA-binding/bending. As the B Box is reported to contain pro-inflammatory activity, mediated primarily through interactions with TLR4-MD2 that are dependent on residue C106, Applicant created a modified B Box variant (mB Box) with a C106S mutation (FIGS. 1A and 1C).

[3] = system: B. cenocepacia biofilm; format: cell-based, Burkholderia cenocepacia; details: 200 nM added at 24 h, 16 h exposure
Protocol: Indicated HMGB1 variants or antibodies against DNABII proteins (α-1HFEc 1gG, 1 μM) were added at 24 h to the respective preformed bacterial biofilms, in vitro. After 16 h of Incubation, biofilms were stained with LIVE/DEAD®, then visualized via confocal laser scanning microscopy. Images were analyzed by COMSTAT to calculate average thickness and comparison to control was plotted. (FIG. 5A) Full-length HMGB1 isoforms (200 nM unless otherwise indicated) added to UPEC, B. cenocepacia, NTHI, or ESKAPE pathogens. 800 nM rHMGB1 and 200 nM mHMGB1 were added for S. aureus (ESKAPE). 800 nM rHMGB1, 800 nM mHMGB1, or 3.3 μM of α-1HFEc 1gG were added for E. faecium (ESKAPE) and were incubated for 1 h as opposed to 16 h to avoid potential degradation by E. faecium proteases. […] (FIG. 5C) Individual domains of HMGB1 (200 nM) were tested for anti-biofilm activity as above (dotted line indicates control values). Bars represent the SEM. Statistical significance compared to control was assessed with unpaired t-tests, *P<0.05. […] After 16 h of incubation, biofilms were stained with LIVE/DEAD®, then visualized via confocal laser scanning microscopy. Images were analyzed by COMSTAT to calculate average thickness and total biomass. Error bars represent the SEM. ***P<0.0001; ns=not significant.

[4] = system: NTHI biofilm; test: in vitro disruption of established biofilms, CLSM and COMSTAT; format: cell-based, Nontypeable Haemophilus influenzae; details: 200 nM added at 24 h, 16 h exposure
Protocol: as §1, §2
HMGB1 domain structure and anti-biofilm activity: Applicant then produced recombinant HMGB1 truncation variants, of 1) the A Box, a self-contained DNA-binding domain (residues 1-89); 2) an A-B Boxes construct (lacks the C tail; residues 1-185); and 3) the B Box (residues 80 to 176, FIGS. 1A and 1C). […]

Row | Molecule | disruption of established K. pneumoniae biofilms (average thickness, biomass) [1] | disruption of established UPEC biofilms [2] | disruption of established Bc biofilms [3] | disruption of established NTHI biofilms [4] | % reduction in average thickness (AT), mean±SE [1] | % reduction in biomass (BM), mean±SE [1]
1 | nHMGB1: native HMGB1 purified from calf thymus (Chondrex, Inc), commercially available, used as a control (protein, UniProt P10103 2-215, looked up) High mobility group protein B1: GKGDPKKPRGKMSSYAFFVQTCREEHKKKHPDASVNFSEFSKKCSERWKTMSAKEKGKFEDMAKADKARYEREMKTYIPPKGETKKKFKDPNAPKRPPSAFFLFCSEYRPKIKGEHPGLSIGDVAKKLGEMWNNTAADDKQPYEKKAAKLKEKYEKDIAAYRAKGKPDAAKKGVVKAEKSKKKKEEEEDEEDEEDEEEEEDEEDEEEEEDDDDE | equivalently disrupted | equivalently disrupted | equivalently disrupted | equivalently disrupted |  | 
2 | AB Boxes: HMGB1 A and B domains (1-176), lacks the C tail (protein, UniProt P09429 1-176, looked up, fragment) MGKGDPKKPRGKMSSYAFFVQTCREEHKKKHPDASVNFSEFSKKCSERWKTMSAKEKGKFEDMAKADKARYEREMKTYIPPKGETKKKFKDPNAPKRPPSAFFLFCSEYRPKIKGEHPGLSIGDVAKKLGEMWNNTAADDKQPYEKKAAKLKEKYEKDIAAYRAKGKPDAAKKGVV | retained full anti-biofilm activity | retained full anti-biofilm activity | retained full anti-biofilm activity | retained full anti-biofilm activity | 64%±0.08 | 73%±0.02
3 | B-Box: HMGB1 domain B Box (90-176), listed beside B-linker Box in Experiment No. 1 (protein, UniProt P09429 90-176, looked up, fragment) KDPNAPKRPPSAFFLFCSEYRPKIKGEHPGLSIGDVAKKLGEMWNNTAADDKQPYEKKAAKLKEKYEKDIAAYRAKGKPDAAKKGVV |  |  |  |  | 63%±0.1 | 68%±0.02
4 | A Box: HMGB1 domain A Box (1-89) with C-terminal linker, lacks B box and C tail (protein, UniProt P09429 1-89, looked up, fragment, C-terminal linker, HMGB1 domain A Box (1-89) with C-terminal linker, lacks B box and C tail) MGKGDPKKPRGKMSSYAFFVQTCREEHKKKHPDASVNFSEFSKKCSERWKTMSAKEKGKFEDMAKADKARYEREMKTYIPPKGETKKKF | no significant effect | no significant effect | no significant effect | no significant effect |  | 
